The record followed here is PMC6284106.

Some results are limits rather than exact numbers.

Experiment [1] has as its target cynomolgus IL-2Rβγ heterodimeric Fc fusion (cynomolgus) (UniProt Q38J85). The experiment in a line: SPR; Biacore T200; biotinylated IL2Rβγ-Fc heterodimer immobilised on streptavidin chips; fusion proteins injected 1.2-300 nM for 2 min, dissociation 10 min; regeneration 3 M MgCl2; global 1:1 model, 'apparent' KD (bivalent binding of the dimeric fusions). In general terms: Surface plasmon resonance follows binding to a sensor surface in real time, without labels.

Experiment [2] deals with human IL-2Rβγ heterodimeric Fc fusion (human) (UniProt P14784). The description is as above.
Experiment [3] shares this target.
Experiment [4] concerns the target human IL-2Rα, monomeric, his-tagged (human) (UniProt P01589). Nature of the experiment: SPR; Biacore T200; monomeric his-tagged IL-2Rα immobilised by amine coupling on CM5 chips; 2-fold dilution series (0.41 nM-300 nM) of the IL-2 fusion protein injected for 90 s, dissociation 3 min; regeneration 10 mM glycine pH 1.5; steady state model.
In experiment [5] the target is cynomolgus IL-2Rα, monomeric, his-tagged (cynomolgus). The experiment is described as above.
Experiment [6] deals with human IL-2Rβγ heterodimeric Fc fusion (human) (UniProt P14784). This is another data set of the same source.

Sequence of UniProt P01589 (P01589 22-272): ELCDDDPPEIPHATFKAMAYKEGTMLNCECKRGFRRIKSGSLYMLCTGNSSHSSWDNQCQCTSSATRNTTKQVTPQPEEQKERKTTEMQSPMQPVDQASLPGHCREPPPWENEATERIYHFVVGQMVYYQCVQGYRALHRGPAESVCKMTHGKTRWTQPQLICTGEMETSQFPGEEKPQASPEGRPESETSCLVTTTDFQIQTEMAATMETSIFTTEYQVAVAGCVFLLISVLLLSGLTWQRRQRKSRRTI

As for “IgG-(IL-2N88D)2 (from UniProt P60568 21-153)”, in experiment [1], the Kd is 0.57 nM. Moreover, in experiment [2], the Kd stood at 0.24 nM. In experiment [3], the EC50 of pSTAT5 induction in CD4+ effector memory T cells, human whole blood is above 10000 pM; the EC50 of pSTAT5 induction in CD4+ naïve Tregs, human whole blood is 18 pM; the EC50 of pSTAT5 induction in CD56bright NK cells, human whole blood is above 1000 pM.

For the substance “IgG-(IL-2)2 (wild-type dimer: two human IL-2 fused to a non-targeted, effector-silent human IgG1) (from UniProt P60568 21-153)”, the Kd stood at 5 nM in experiment [4] and 15 nM in experiment [5].

In experiment [6], “IgG-(IL-2)2 (from UniProt P60568 21-153)” gave an EC50 of pSTAT5 induction in memory and naïve Tregs, human whole blood of 0.3 pM. Further, the Kd in experiment [1] came out at 0.04 nM; in experiment [2] it was 0.003 nM.

With IgG-IL-2 (from UniProt P60568 21-153), the Kd in experiment [1] worked out at 0.18 nM; in experiment [2] it was 0.04 nM.

In the case of “IgG-(IL-2N88D)2 (two human IL-2 N88D muteins fused to a non-targeted, effector-silent human IgG1) (from UniProt P60568 21-153)”, the Kd in experiment [4] was determined as 22 nM; in experiment [5], 30 nM.

For “IgG-IL-2 (wild-type monomer: one human IL-2 fused to a non-targeted, effector-silent human IgG1) (from UniProt P60568 21-153)”, the Kd in experiment [4] was determined as 15 nM; in experiment [5], 30 nM.
